# T1: tetrahydrodipicolinate N-succinyltransferase (DapD, PA3666) (Pseudomonas aeruginosa, UniProt G3XD76)
# T1 sequence (G3XD76 1-344): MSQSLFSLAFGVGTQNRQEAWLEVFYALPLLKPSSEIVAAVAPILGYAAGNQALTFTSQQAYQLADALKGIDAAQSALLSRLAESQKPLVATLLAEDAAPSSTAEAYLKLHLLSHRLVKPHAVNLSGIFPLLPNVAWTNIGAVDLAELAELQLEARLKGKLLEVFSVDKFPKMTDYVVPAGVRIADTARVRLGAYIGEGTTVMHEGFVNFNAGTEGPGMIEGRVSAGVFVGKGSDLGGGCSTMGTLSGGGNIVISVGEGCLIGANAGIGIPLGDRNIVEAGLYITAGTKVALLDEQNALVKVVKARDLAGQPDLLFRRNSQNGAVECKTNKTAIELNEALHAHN
# Tests used:
# [1] = target: T1, tetrahydrodipicolinate N-succinyltransferase (DapD, PA3666); test: crystal structure at […] Å (soaking); IC50 in DTNB succinyltransferase assay; format: biochemical; design: recombinant DapD with Gly-Ser-His at the N-terminus after thrombin cleavage; residues 330–344 not modeled
# [2] = target: T1, tetrahydrodipicolinate N-succinyltransferase (DapD, PA3666); test: crystal structure at […] Å (co-crystallization), with succinate; format: binding; design: recombinant DapD; model residues 1–245 and 251–343
# [3] = target: Tetrahydrodipicolinate N-succinyltransferase (DapD, PA3666) from Pseudomonas aeruginosa (Pseudomonas aeruginosa PAO1); test: SEC; analytical size exclusion chromatography, Superdex-200 10/30, 25 mM Tris-HCl pH 8.0, 150 mM NaCl; calibrated with chymotrypsinogen-A, ovalbumin, albumin, catalase, ferritin
# [4] = target: Tetrahydrodipicolinate N-succinyltransferase (DapD, PA3666) from Pseudomonas aeruginosa (Pseudomonas aeruginosa PAO1); test: crystal structure; PaDapD, hanging drops, 19-20% PEG3350, 0.3-0.4 M succinate pH 6.2; tetragonal P4(1)2(1)2 (apo, CoA-succinate) and monoclinic P2(1) (apo, L-2AP, D-2AP) crystal forms
# [5] = target: T1, tetrahydrodipicolinate N-succinyltransferase (DapD, PA3666); test: crystal structure at […] Å with CoA; succinate from […] in the crystallization buffer; format: binding; design: recombinant DapD; model residues 1–245 and 251–343
# [6] = target: the molecule itself; test: SEC; analytical size exclusion chromatography, Superdex-200 10/30, 25 mM Tris-HCl pH 8.0, 150 mM NaCl; calibrated with chymotrypsinogen-A, ovalbumin, albumin, catalase, ferritin
# purified protein = substrate: N[C@@H](CCCCC(=O)O)C(=O)O; test: purified protein; format: biochemical, Pseudomonas aeruginosa; conditions: active site groove between two subunits of the homotrimer; two arginines (Arg181, Arg193), Asn209, Ala226, Glu221
molecule,measurement,setting,value
"N[C@H](CCCCC(=O)O)C(=O)O [D-2AP, D-2-aminopimelate]",IC50,[1],> 20 mM
"CC(C)(COP(=O)(O)OP(=O)(O)OC[C@H]1O[C@@H](n2cnc3c(N)ncnc32)[C@H](O)[C@@H]1OP(=O)(O)O)[C@@H](O)C(=O)NCCC(=O)NCCS [CoA, coenzyme A]","crystal structure at 2.40 Å (co-crystallization), with succinate",[2],Coenzyme A is bound in this narrow cleft formed at the interface of two adjacent subunits
"Tetrahydrodipicolinate N-succinyltransferase (DapD, PA3666) from Pseudomonas aeruginosa (enzyme)",stoichiometry N,[3],3
same,stoichiometry N,[4],3
O=C(O)CCC(=O)O [succinate],crystal structure at 2.40 Å with CoA; succinate from 0.4 M in the crystallizatio,[5],contains a succinate molecule bound next to the acceptor arm of the CoA in the active site cleft
"Dihydrodipicolinate synthase (DapA, PA1010) from Pseudomonas aeruginosa (enzyme, Pseudomonas aeruginosa PAO1, Dihydrodipicolinate synthase DapA, locus PA1010, Pseudomonas aeruginosa PAO1; the gene coding for DapA was cloned in pNIC28Bsa4 by LIC; the final model holds residues 1-291 (chain A) and 2-291 (chains B, C, D); N-terminal His6 tag with TEV site from vector pNIC28Bsa4 (GenBank EF198106); also called PaDapA; source: E. coli BL21(DE3), purified (Ni-NTA, Sephadex G-25 desalting); not shown: His6, …) MIAGSMVALVTPFDAQGRLDWDSLAKLVDFHLQEGTNAIVAVGTTGESATLDVEEHIQVIRRVVDQVKGRIPVIAGTGANSTREAVALTEAAKSGGADACLLVTPYYNKPTQEGMYQHFRHIAEAVAIPQILYNVPGRTSCDMLPETVERLSKVPNIIGIKEATGDLQRAKEVIERVGKDFLVYSGDDATAVELMLLGGKGNISVTANVAPRAMSDLCAAAMRGDAAAARAINDRLMPLHKALFIESNPIPVKWALHEMGLIPEGIRLPLTWLSPRCHEPLRQAMRQTGVLA",stoichiometry N,[6],2
"tetrahydrodipicolinate N-succinyltransferase (DapD, PA3666) (Pseudomonas aeruginosa PAO1) (protein, recombinant DapD with Gly-Ser-His at the N-terminus after thrombin cleavage; residues 330–344 not modeled) MSQSLFSLAFGVGTQNRQEAWLEVFYALPLLKPSSEIVAAVAPILGYAAGNQALTFTSQQAYQLADALKGIDAAQSALLSRLAESQKPLVATLLAEDAAPSSTAEAYLKLHLLSHRLVKPHAVNLSGIFPLLPNVAWTNIGAVDLAELAELQLEARLKGKLLEVFSVDKFPKMTDYVVPAGVRIADTARVRLGAYIGEGTTVMHEGFVNFNAGTEGPGMIEGRVSAGVFVGKGSDLGGGCSTMGTLSGGGNIVISVGEGCLIGANAGIGIPLGDRNIVEAGLYITAGTKVALLDEQNALVKVVKARDLAGQPDLLFRRNSQNGAVECKTNKTAIELNEALHAHN",Km,purified protein,7.0 mM

# Reference: article PMC3281039, “Tetrahydrodipicolinate N-Succinyltransferase and Dihydrodipicolinate Synthase from Pseudomonas aeruginosa: Structure Analysis and Gene Deletion” (PLoS ONE, 2012)
